Here are results for eleven variants from IntAct's records for PubMed 31515488.

The chains are these.
B1: Protein LDOC1 (Homo sapiens), O95751 (parent)
chain: MVDELVLLLHALLMRHRALSIENSQLMEQLRLLVCERASLLRQVRPPSCPVPFPETFNGESSRLPEFIVQTASYMLVNENRFCNDAMKVAFLISLLTGEAEEWVVPYIEMDSPILGDYRAFLDEMKQCFGWDDDEDDDDEEEEDDY
partner: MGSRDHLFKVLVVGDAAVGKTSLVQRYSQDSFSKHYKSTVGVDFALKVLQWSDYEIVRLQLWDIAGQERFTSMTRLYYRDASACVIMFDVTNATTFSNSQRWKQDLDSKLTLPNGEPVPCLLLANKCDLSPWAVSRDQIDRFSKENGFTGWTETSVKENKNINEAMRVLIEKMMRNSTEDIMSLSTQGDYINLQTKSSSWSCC
B2: Centrosomal protein of 55 kDa (Homo sapiens), Q53EZ4 (parent)
chain: MSSRSTKDLIKSKWGSKPSNSKSETTLEKLKGEIAHLKTSVDEITSGKGKLTDKERHRLLEKIRVLEAEKEKNAYQLTEKDKEIQRLRDQLKARYSTTTLLEQLEETTREGERREQVLKALSEEKDVLKQQLSAATSRIAELESKTNTLRLSQTVAPNCFNSSINNIHEMEIQLKDALEKNQQWLVYDQQREVYVKGLLAKIFELEKKTETAAHSLPQQTKKPESEGYLQEEKQKCYNDLLASAKKDLEVERQTITQLSFELSEFRRKYEETQKEVHNLNQLLYSQRRADVQHLEDDRHKTEKIQKLREENDIARGKLEEEKKRSEELLSQVQFLYTSLLKQQEEQTRVALLEQQMQACTLDFENEKLDRQHVQHQLHVILKELRKARNQITQLESLKQLHEFAITEPLVTFQGETENREKVAASPKSPTAALNESLVECPKCNIQYPATEHRDLLVHVEYCSK
partner: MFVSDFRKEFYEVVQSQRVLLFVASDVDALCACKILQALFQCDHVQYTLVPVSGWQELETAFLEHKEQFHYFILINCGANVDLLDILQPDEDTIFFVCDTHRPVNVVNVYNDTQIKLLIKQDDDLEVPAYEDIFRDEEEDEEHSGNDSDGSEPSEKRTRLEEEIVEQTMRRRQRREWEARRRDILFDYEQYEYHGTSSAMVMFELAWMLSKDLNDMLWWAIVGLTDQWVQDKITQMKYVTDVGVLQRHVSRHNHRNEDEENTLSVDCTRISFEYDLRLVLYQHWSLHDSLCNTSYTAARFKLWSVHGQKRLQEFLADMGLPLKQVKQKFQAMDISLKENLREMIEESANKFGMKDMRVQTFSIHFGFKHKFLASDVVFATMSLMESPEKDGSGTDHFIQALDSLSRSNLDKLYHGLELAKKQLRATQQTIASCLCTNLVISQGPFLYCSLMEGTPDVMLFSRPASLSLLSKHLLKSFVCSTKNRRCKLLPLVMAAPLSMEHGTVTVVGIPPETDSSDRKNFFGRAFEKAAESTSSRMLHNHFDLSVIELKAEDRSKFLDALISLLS
B3: Cysteine-rich secretory protein 2 (Homo sapiens), P16562 (parent)
chain: MALLPVLFLVTVLLPSLPAEGKDPAFTALLTTQLQVQREIVNKHNELRKAVSPPASNMLKMEWSREVTTNAQRWANKCTLQHSDPEDRKTSTRCGENLYMSSDPTSWSSAIQSWYDEILDFVYGVGPKSPNAVVGHYTQLVWYSTYQVGCGIAYCPNQDSLKYYYVCQYCPAGNNMNRKNTPYQQGTPCAGCPDDCDKGLCTNSCQYQDLLSNCDSLKNTAGCEHELLKEKCKATCLCENKIY
partner: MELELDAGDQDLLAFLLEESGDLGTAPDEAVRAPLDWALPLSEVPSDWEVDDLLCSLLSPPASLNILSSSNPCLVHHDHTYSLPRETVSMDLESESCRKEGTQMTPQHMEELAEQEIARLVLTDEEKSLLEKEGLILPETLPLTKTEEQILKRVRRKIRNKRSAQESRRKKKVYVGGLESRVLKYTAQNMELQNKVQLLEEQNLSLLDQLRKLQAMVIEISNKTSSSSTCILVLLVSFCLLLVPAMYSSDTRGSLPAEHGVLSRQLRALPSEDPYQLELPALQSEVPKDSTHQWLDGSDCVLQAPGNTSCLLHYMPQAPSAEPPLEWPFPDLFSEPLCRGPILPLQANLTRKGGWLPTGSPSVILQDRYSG
B4: Cell growth regulator with RING finger domain protein 1 (Homo sapiens), Q99675 (parent)
chain: MAAVFLVTLYEYSPLFYIAVVFTCFIVTTGLVLGWFGWDVPVILRNSEETQFSTRVFKKQMRQVKNPFGLEITNPSSASITTGITLTTDCLEDSLLTCYWGCSVQKLYEALQKHVYCFRISTPQALEDALYSEYLYQEQYFIKKDSKEEIYCQLPRDTKIEDFGTVPRSRYPLVALLTLADEDDREIYDIISMVSVIHIPDRTYKLSCRILYQYLLLAQGQFHDLKQLFMSANNNFTPSNNSSSEEKNTDRSLLEKVGLSESEVEPSEENSKDCVVCQNGTVNWVLLPCRHTCLCDGCVKYFQQCPMCRQFVQESFALCSQKEQDKDKPKTL
partner: B3 partner
B5: KH domain-containing, RNA-binding, signal transduction-associated protein 2 (Homo sapiens), Q5VWX1 (parent)
chain: MEEEKYLPELMAEKDSLDPSFVHASRLLAEEIEKFQGSDGKKEDEEKKYLDVISNKNIKLSERVLIPVKQYPKFNFVGKLLGPRGNSLKRLQEETGAKMSILGKGSMRDKAKEEELRKSGEAKYAHLSDELHVLIEVFAPPGEAYSRMSHALEEIKKFLVPDYNDEIRQEQLRELSYLNGSEDSGRGRGIRGRGIRIAPTAPSRGRGGAIPPPPPPGRGVLTPRGSTVTRGALPVPPVARGVPTPRARGAPTVPGYRAPPPPAHEAYEEYGYDDGYGGEYDDQTYETYDNSYATQTQSVPEYYDYGHGVSEDAYDSYAPEEWATTRSSLKAPPQRSARGGYREHPYGRY
partner: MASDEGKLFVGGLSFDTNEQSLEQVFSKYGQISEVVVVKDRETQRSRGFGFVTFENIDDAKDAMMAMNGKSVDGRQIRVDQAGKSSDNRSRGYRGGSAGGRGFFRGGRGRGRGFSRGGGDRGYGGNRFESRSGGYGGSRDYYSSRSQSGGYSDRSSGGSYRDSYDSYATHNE
B6: E3 ubiquitin-protein ligase TRIM17 (Homo sapiens), Q9Y577 (parent)
chain: MEAVELARKLQEEATCSICLDYFTDPVMTTCGHNFCRACIQLSWEKARGKKGRRKRKGSFPCPECREMSPQRNLLPNRLLTKVAEMAQQHPGLQKQDLCQEHHEPLKLFCQKDQSPICVVCRESREHRLHRVLPAEEAVQGYKLKLEEDMEYLREQITRTGNLQAREEQSLAEWQGKVKERRERIVLEFEKMNLYLVEEEQRLLQALETEEEETASRLRESVACLDRQGHSLELLLLQLEERSTQGPLQMLQDMKEPLSRKNNVSVQCPEVAPPTRPRTVCRVPGQIEVLRGFLEDVVPDATSAYPYLLLYESRQRRYLGSSPEGSGFCSKDRFVAYPCAVGQTAFSSGRHYWEVGMNITGDALWALGVCRDNVSRKDRVPKCPENGFWVVQLSKGTKYLSTFSALTPVMLMEPPSHMGIFLDFEAGEVSFYSVSDGSHLHTYSQATFPGPLQPFFCLGAPKSGQMVISTVTMWVKG
partner: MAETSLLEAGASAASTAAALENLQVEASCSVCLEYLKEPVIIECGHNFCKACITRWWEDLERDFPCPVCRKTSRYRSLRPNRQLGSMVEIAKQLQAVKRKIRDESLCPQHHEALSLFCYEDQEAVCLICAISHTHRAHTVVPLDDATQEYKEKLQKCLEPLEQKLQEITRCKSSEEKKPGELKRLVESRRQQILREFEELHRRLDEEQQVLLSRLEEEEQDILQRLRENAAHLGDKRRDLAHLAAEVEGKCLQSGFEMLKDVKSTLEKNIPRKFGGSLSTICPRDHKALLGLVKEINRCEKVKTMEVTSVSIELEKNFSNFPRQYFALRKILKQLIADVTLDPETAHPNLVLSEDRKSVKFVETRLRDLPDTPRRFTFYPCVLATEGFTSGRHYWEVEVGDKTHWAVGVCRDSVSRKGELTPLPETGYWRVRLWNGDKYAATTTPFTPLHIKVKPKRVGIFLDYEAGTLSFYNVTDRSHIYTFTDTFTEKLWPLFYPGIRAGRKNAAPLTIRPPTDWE
B7: Pre-B-cell leukemia transcription factor 4 (Homo sapiens), Q9BYU1 (parent)
chain: MAAPPRPAPSPPAPRRLDTSDVLQQIMAITDQSLDEAQARKHALNCHRMKPALFSVLCEIKEKTVVSIRGIQDEDPPDAQLLRLDNMLLAEGVCRPEKRGRGGAVARAGTATPGGCPNDNSIEHSDYRAKLSQIRQIYHSELEKYEQACREFTTHVTNLLQEQSRMRPVSPKEIERMVGAIHGKFSAIQMQLKQSTCEAVMTLRSRLLDARRKRRNFSKQATEVLNEYFYSHLNNPYPSEEAKEELARKGGLTISQVSNWFGNKRIRYKKNMGKFQEEATIYTGKTAVDTTEVGVPGNHASCLSTPSSGSSGPFPLPSAGDAFLTLRTLASLQPPPGGGCLQSQAQGSWQGATPQPATASPAGDPGSINSSTSN
partner: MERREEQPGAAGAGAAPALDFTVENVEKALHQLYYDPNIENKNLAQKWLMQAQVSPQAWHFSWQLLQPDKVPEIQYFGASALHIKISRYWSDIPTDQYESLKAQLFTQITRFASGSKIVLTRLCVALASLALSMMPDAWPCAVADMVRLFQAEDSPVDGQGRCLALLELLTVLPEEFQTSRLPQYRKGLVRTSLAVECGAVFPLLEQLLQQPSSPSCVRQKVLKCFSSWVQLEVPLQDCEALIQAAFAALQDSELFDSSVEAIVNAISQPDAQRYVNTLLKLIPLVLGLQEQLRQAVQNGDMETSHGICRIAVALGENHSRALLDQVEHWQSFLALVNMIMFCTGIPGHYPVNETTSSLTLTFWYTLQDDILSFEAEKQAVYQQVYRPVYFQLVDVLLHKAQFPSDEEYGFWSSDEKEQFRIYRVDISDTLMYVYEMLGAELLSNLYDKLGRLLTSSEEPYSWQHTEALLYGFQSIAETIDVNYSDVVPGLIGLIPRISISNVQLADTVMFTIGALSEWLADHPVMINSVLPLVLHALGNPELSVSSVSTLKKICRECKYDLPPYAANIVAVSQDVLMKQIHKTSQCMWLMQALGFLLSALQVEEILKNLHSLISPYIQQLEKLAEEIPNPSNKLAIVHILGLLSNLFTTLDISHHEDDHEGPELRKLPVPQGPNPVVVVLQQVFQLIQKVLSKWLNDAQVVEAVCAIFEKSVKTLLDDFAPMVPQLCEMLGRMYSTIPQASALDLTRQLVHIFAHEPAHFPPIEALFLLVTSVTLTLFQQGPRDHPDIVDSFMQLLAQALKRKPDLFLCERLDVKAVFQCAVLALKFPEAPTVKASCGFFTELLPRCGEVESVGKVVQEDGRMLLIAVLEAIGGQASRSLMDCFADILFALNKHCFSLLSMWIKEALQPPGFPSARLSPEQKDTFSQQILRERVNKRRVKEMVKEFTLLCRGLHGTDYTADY

Variants of B1 are the subject of the first assay. As to conditions: with rab7l_human RAB29, O14966.
Take L12H: the “effect of a mutation on the interaction” value is “disrupting interaction strength”.

In a further assay the parent is B2. As to conditions: with cdc45_human CDC45, O75419.
C236R: the “effect of a mutation on the interaction” value is recorded as “with no effect”.
H57Q: the “effect of a mutation on the interaction” value is “with no effect”.
With R348K, the “effect of a mutation on the interaction” value was “with no effect”.
The same measure, in the same setting: the value for A244P was “with no effect”.

Another assay covers variants of B3. As to conditions: with creb3_human CREB3, O43889.
For C196R, the “effect of a mutation on the interaction” value is “with no effect”.

The variants in a further assay derive from B4. As to conditions: with creb3_human CREB3, O43889.
As for R185W, the “effect of a mutation on the interaction” value was “disrupting interaction strength”.

Variants of B5 are the subject of the next assay. As to conditions: with cirbp_human CIRBP.
Regarding P333L, the “effect of a mutation on the interaction” value is reported as “with no effect”.

The variants in the next assay derive from B6. As to conditions: with tri39_human TRIM39, Q9HCM9.
On to E173K, for which the “effect of a mutation on the interaction” value was “with no effect”.
Regarding T30A, the “effect of a mutation on the interaction” value is listed as “disrupting interaction strength”.

The variants in the next assay derive from B7. As to conditions: with ipo13_human IPO13, O94829.
On to T154M, for which the “effect of a mutation on the interaction” value is on record as “with no effect”.
